The record followed here is US20240301062A1 (BEIGENE SWITZERLAND, published 2024).

The target in assay [1] is T1, human claudin 6 (CLDN6) (human, UniProt P56747 1-220).
T1 construct: also called human CLDN6; hCLDN6
T1 sequence: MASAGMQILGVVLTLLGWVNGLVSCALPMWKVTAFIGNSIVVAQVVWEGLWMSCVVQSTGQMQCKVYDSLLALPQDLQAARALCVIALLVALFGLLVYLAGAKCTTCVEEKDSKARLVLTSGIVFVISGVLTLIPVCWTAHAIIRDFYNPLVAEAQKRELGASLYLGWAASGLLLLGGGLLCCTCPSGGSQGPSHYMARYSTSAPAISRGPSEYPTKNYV
Nature of the assay: flow cytometry, CHOK1/human CLDN6-GFP cells. A general note: Flow cytometry measures light scatter and fluorescence of single cells or particles in a stream.

Assay [2] concerns the target T2, mouse CLDN6 (mouse, UniProt Q9Z262 1-219).
T2 construct: whole, on cells
T2 sequence (looked up): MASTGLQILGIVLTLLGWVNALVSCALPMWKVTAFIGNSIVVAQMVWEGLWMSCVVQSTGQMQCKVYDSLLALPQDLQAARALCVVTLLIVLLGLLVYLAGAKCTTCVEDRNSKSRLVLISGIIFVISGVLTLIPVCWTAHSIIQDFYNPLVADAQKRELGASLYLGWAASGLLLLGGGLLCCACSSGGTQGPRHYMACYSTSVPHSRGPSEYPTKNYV
Nature of the assay: flow cytometry, CHOK1/mouse CLDN6-GFP cells.

Assay [3] deals with T3, cyno CLDN6 (cyno).
T3 construct: whole, on cells; also called cynomolgus CLDN6
The assay is described as follows: flow cytometry, CHOK1/Cyno CLDN6-GFP cells.

For assay [4], the target named is T1, human claudin 6 (CLDN6). Nature of the assay: flow cytometry, PA-1 cells (endogenous CLDN6).
For assay [5], the target named is T4, human claudin 9 (CLDN9) (human, UniProt O95484 1-217).
T4 construct: also called human CLDN9
T4 sequence: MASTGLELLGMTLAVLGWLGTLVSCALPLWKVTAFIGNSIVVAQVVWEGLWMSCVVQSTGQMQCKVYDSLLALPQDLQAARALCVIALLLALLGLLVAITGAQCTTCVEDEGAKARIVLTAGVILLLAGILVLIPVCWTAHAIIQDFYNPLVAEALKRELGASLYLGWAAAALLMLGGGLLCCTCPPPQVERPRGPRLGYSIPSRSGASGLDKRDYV
The assay is described as follows: flow cytometry, CHOK1/human CLDN9-GFP cells.

The target of assay [6] is T4, human claudin 9 (CLDN9). Nature of the assay: flow cytometry on NCI-H1299 cells stably expressing human CLDN9, anti-human Fc gamma secondary, MFI (AF647) [right panel]. As to the method:
Expressing vectors of human CLDN6 and CLDN9 were established by inserting synthesized cDNA coding corresponding sequences into mammalian expression vector. NCI-H1299 stable cells expressing human CLDN6 and CLDN9 were generated by transfection of corresponding plasmids. Cells were suspended at a concentration of 1×10⁶ cells in FACS buffer (2% FBS, 1×PBS), and the cell suspension was dispensed into a U-bottom 96-well plate ([…]). Antibody was added thereto at final top concentration of 100 nM and 2× dilute for 11 dilutions, then mixed with cells and incubated at 4° C. for 1 hour. After centrifugation, the reaction solution was removed, and the cells were washed twice with 200 μL/well FACS buffer. Then, APC-anti human Fcγ was diluted 500-fold with FACS buffer and added as secondary antibodies to the cells. The cells were incubated at 4° C. for 30 mins, then washed twice as above, and suspended in 100 μL FACS buffer. The cell suspension was subjected to flow cytometry.

In assay [7] the target is T5, Cyno CDεγ (recombinant cynomolgus CD3εγ) (cyno, UniProt Q95LI5 22-117; Q95LI7 23-113).
T5 construct: Printed as CDεγ; read as CD3εγ
T5 sequence (looked up) 1: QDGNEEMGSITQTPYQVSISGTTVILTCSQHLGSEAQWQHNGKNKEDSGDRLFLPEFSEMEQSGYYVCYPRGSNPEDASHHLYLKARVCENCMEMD
T5 sequence (looked up) 2: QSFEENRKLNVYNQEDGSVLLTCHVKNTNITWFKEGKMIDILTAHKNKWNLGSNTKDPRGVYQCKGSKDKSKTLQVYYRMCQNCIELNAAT
The assay is described as follows: SPR, recombinant protein. As for the experimental part: (§1) The binding kinetics of CLDN6×CD3 BsAb BG143P were measured using SPR. SPR was used to measure the on-rate constant (kₐ) and off-rate constant (kd) of the antibodies to recombinant proteins of CDεγ and then determined the affinity constant (KD).

For assay [8], the target named is T6, Human CDεγ (recombinant human CD3εγ) (human, UniProt P07766 23-126; P09693 23-116).
T6 construct: Printed as CDεγ; read as CD3εγ
The assay is described as follows: SPR, recombinant protein. As to the method: as §1

Assay [9] concerns the target T1, human claudin 6 (CLDN6). Nature of the assay: FACS, CLDN6-expressing PA-1 cells.
Assay [10] addresses T7, human native CD3 on live cells (HuT78, Jurkat) (human, UniProt P07766 23-207; P09693 23-182; P04234 22-171).
T7 construct: whole, on cells; also called human CD3
Nature of the assay: FACS, CD3-expressing Jurkat cells.

T6 sequence (P07766 23-126, chain 1 of 2): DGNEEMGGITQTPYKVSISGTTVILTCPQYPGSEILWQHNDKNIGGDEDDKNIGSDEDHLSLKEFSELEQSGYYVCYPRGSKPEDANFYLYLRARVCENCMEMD
T6 sequence (P09693 23-116, chain 2 of 2): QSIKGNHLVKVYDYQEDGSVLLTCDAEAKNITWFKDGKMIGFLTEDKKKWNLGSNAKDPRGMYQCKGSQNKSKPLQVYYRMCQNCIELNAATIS
T7 sequence (P07766 23-207, chain 1 of 3): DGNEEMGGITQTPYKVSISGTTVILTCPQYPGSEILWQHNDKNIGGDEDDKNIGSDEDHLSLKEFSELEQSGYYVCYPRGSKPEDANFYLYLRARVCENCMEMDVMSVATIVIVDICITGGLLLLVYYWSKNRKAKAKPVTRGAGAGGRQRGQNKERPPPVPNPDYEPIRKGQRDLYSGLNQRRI
T7 sequence (P09693 23-182, chain 2 of 3): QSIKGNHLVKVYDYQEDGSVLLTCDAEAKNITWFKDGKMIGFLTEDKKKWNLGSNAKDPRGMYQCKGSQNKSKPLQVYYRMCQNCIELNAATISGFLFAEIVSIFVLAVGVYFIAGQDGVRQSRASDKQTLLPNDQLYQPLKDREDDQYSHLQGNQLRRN
T7 sequence (P04234 22-171, chain 3 of 3): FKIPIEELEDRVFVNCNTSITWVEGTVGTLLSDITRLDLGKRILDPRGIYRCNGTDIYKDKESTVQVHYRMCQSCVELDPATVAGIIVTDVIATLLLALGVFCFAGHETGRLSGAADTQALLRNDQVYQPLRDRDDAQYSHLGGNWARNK

B1: BG87P (mouse anti-CLDN6 antibody, hybridoma clone) (antibody, V domains shown)
VH: QIQLQQSGPELVKPGASVKISCKASGYSFTDYHINWVKQRPGQGLEWIGWIYPGSGYTKYNEKFKVKATLTVDTSSSTAYMHLTSLTSEDSAVYFCARSGIYHYVSSYYFDHWGQGTTLTVSS
VL: DIVMTQSHTFMSTSVGDRVSITCKASQDVGTAVAWYQQKPGQSPKLLIYWASTRHTGVPDRFTGSGSGTDFTLTISNVQSEDLADYFCQQYSSYTFGGGTKLEIK
notes: Mouse antibody purified from hybridoma supernatant on protein A; also called clone BG87P
Usually EC50 stands for the concentration at which the effect is half-maximal. High values mean a need for much substance, low ones an effect from little substance. As for B1, the concentration giving a half-maximal response (EC50) in [1] stood at 3.41 nM; in [2] it was 94.7 nM; in assay [3], 6.08 nM; in [4], 3.38 nM. The binding result in assay [5] is given as “no binding”.

B2: CLDN6xCD3 BsAb BG143P (bispecific antibody, human IgG1, kappa)
chain: EVQLVESGGGLVQPGGSLRLSCAASGFTFSTYAMNWVRQAPGKGLEWVGRIRSKYNNYATYYADSVKGRFTISRDDAKNSLYLQMNSLRAEDTAVYYCVRHGNFGSSYVSWFAYWGQGTLVTVSSGGGGSGGGGSGGGGSEIVVTQSPATLSVSPGERATLSCRSSTGAVTTSNYANWVQQKPGQAPRGLIGGTNKRAPGIPARFSGSLSGDEATLTISSLQSEDFAVYYCALWYSNLWVFGGGTKVEIKEPKSSDKTHTCPPCPAPPAAGPSVFLFPPKPKDTLMISRTPEVTCVVVDVSHEDPEVKFNWYVDGVEVHNAKTKPREEQYNSTYRVVSVLTVLHQDWLNGKEYKCKVSNKALAAPIEKTISKAKGQPREPQVYTLPPSRDELTKNQVSLWCLVKGFYPSDIAVEWESNGQPENNYKTTPPVLDSDGSFFLYSKLTVDKSRWQQGNVFSCSVMHEALHNHYTQKSLSLSPGK
heavy: EVQLQESGGGLVQPGGSLRLSCAASGYSFSDYHINWVRQAPGKGLEWVGYIYPGSGHTKYNEKFKGRFTISRDTSSNTAYLQMNSLRAEDTAVYYCARSGIYHYVSSYYFDHWGQGTLVTVSSASTKGPSVFPLAPSSKSTSGGTAALGCLVKDYFPEPVTVSWNSGALTSGVHTFPAVLQSSGLYSLSSVVTVPSSSLGTQTYICNVNHKPSNTKVDKKVEPKSCDKTHTCPPCPAPPAAGPSVFLFPPKPKDTLMISRTPEVTCVVVDVSHEDPEVKFNWYVDGVEVHNAKTKPREEQYNSTYRVVSVLTVLHQDWLNGKEYKCKVSNKALAAPIEKTISKAKGQPREPQVYTLPPSRDELTKNQVSLSCAVKGFYPSDIAVEWESNGQPENNYKTTPPVLDSDGSFFLVSKLTVDKSRWQQGNVFSCSVMHEALHNHYTQKSLSLSPGK
light: DIQMTQSPSSLSASVGDRVTITCKASQDAGSAVAWYQQKPGKAPKLLIYWASTRHTGVPSRFSGSGSGTDFTLTISSLQPEDFATYYCQQYSSYTFGGGTKLEIKRTVAAPSVFIFPPSDEQLKSGTASVVCLLNNFYPREAKVQWKVDNALQSGNSQESVTEQDSKDSTYSLSSTLTLSKADYEKHKVYACEVTHQGLSSPVTKSFNRGEC
notes: module ratio 1:1, Fc null huIgG1, knob into hole; also called CLDN6×CD3 BsAb; CLDN6×CD3 antibody
As a reminder, the Kd is the constant that tells how readily two partners part at equilibrium. As usually defined, the koff is the rate constant with which the complex falls apart. Usually kon stands for the rate constant with which the complex forms. For the molecule B2, the binding result in assay [6] is “no binding (tested: 100 nM)”. For the same molecule, the Kd in assay [7] was determined as 4.55 nM; in [8], 8.31 nM. Moreover, the dissociation rate constant (koff) in [7] turned out to be 0.00599 s⁻¹; in assay [8], 0.0181 s⁻¹. In addition, the kon in assay [7] came out at 1.32e+06 M⁻¹ s⁻¹; in assay [8] it was 2.17e+06 M⁻¹ s⁻¹. In addition, the figures for the EC50 in assay [9] and in [10] were 81.3 nM and 6.98 nM, respectively.
